For test [1], the target named is UbcH7 wild type (UniProt P68036 1-154). Nature of the test: ITC.
Test [2] deals with UbcH7 K96S (UniProt P68036 1-154, K96S). Nature of the test: ITC. A general note: ITC needs no label: the signal is the heat of the interaction.

B1: HHARI^ΔHG (protein)
chain: MDSDEGYNYEFDEDEECSEEDSGAEEEEDEDDDEPDDDTLDLGEVELVEPGLGVGGERDGLLCGETGGGGGSALGPGGGGGGGGGGGGGGPGHEQEEDYRYEVLTAEQILQHMVECIREVNEVIQNPATITRILLSHFNWDKEKLMERYFDGNLEKLFAECHVINPSKKSRTRQMNTRSSAQDMPCQICYLNYPNSYFTGLECGHKFCMQCWSEYLTTKIMEEGMGQTISCPACDILVDDNTVMRLITDSKVKLKYQHLITNSFVECNRLLKWCPAPDCHHVVKVQYPDAKPVRCKCGRQFCFNCGENWHDPVKCKWLKKWIKKCDDDSETSNWIAANTKECPKCHVTIEKDGGCNHMVCRNQNCKAEFCWVCLGPWEPHGSAWYNCNRYNEDDAKAA
In general, Kd refers to the constant that tells how readily two partners part at equilibrium. A high value points to a looser complex. With B1, the figures for the dissociation constant (Kd) in test [1] and in test [2] were 0.965 µM and 15.7 µM, respectively.
